IntAct's records for PubMed 23328395

B1: Non-structural protein V (Simian virus 5 (strain W3)), P11207 (parent)
chain: MDPTDLSFSPDEINKLIETGLNTVEYFTSQQVTGTSSLGKNTIPPGVTGLLTNAAEAKIQESTNHQKGSVGGGAKPKKPRPKIAIVPADDKTVPGKPIPNPLLGLDSTPSTQTVLDLSGKTLPSGSYKGVKLAKFGKENLMTRFIEEPRENPIATSSPIDFKRGRDTGGFHRREYSIGWVGDEVKVTEWCNPSCSPITAAARRFECTCHQCPVTCSECERDT
partner: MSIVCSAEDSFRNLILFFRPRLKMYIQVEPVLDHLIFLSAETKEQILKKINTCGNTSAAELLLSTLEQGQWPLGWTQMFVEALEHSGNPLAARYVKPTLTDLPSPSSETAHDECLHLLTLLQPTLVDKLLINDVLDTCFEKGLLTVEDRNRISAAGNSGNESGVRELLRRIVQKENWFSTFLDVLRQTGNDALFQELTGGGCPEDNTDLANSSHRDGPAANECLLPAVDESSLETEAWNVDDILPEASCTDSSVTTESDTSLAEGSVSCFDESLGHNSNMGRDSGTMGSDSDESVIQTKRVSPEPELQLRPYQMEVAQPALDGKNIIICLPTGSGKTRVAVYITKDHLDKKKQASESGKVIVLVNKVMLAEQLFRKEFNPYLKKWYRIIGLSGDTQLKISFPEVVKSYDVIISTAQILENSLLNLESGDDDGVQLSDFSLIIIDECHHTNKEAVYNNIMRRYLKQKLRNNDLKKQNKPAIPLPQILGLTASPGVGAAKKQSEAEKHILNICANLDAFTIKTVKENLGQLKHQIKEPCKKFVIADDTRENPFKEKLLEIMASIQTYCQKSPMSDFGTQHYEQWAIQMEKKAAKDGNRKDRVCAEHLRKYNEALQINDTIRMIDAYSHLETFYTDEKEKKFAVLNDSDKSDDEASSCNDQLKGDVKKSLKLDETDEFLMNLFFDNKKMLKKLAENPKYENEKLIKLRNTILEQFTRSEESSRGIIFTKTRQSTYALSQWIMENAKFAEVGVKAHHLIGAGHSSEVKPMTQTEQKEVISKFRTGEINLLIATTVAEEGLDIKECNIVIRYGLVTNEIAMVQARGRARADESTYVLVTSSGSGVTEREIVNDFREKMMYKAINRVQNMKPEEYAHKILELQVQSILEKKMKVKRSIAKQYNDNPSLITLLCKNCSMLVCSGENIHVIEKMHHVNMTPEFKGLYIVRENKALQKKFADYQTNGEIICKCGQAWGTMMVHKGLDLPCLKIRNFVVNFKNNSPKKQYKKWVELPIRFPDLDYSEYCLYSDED
B2: Interferon-induced helicase C domain-containing protein 1 (Homo sapiens), Q9BYX4 (parent)
chain: MSNGYSTDENFRYLISCFRARVKMYIQVEPVLDYLTFLPAEVKEQIQRTVATSGNMQAVELLLSTLEKGVWHLGWTREFVEALRRTGSPLAARYMNPELTDLPSPSFENAHDEYLQLLNLLQPTLVDKLLVRDVLDKCMEEELLTIEDRNRIAAAENNGNESGVRELLKRIVQKENWFSAFLNVLRQTGNNELVQELTGSDCSESNAEIENLSQVDGPQVEEQLLSTTVQPNLEKEVWGMENNSSESSFADSSVVSESDTSLAEGSVSCLDESLGHNSNMGSDSGTMGSDSDEENVAARASPEPELQLRPYQMEVAQPALEGKNIIICLPTGSGKTRVAVYIAKDHLDKKKKASEPGKVIVLVNKVLLVEQLFRKEFQPFLKKWYRVIGLSGDTQLKISFPEVVKSCDIIISTAQILENSLLNLENGEDAGVQLSDFSLIIIDECHHTNKEAVYNNIMRHYLMQKLKNNRLKKENKPVIPLPQILGLTASPGVGGATKQAKAEEHILKLCANLDAFTIKTVKENLDQLKNQIQEPCKKFAIADATREDPFKEKLLEIMTRIQTYCQMSPMSDFGTQPYEQWAIQMEKKAAKEGNRKERVCAEHLRKYNEALQINDTIRMIDAYTHLETFYNEEKDKKFAVIEDDSDEGGDDEYCDGDEDEDDLKKPLKLDETDRFLMTLFFENNKMLKRLAENPEYENEKLTKLRNTIMEQYTRTEESARGIIFTKTRQSAYALSQWITENEKFAEVGVKAHHLIGAGHSSEFKPMTQNEQKEVISKFRTGKINLLIATTVAEEGLDIKECNIVIRYGLVTNEIAMVQARGRARADESTYVLVAHSGSGVIEHETVNDFREKMMYKAIHCVQNMKPEEYAHKILELQMQSIMEKKMKTKRNIAKHYKNNPSLITFLCKNCSVLACSGEDIHVIEKMHHVNMTPEFKELYIVRENKALQKKCADYQINGEIICKCGQAWGTMMVHKGLDLPCLKIRNFVVVFKNNSTKKQYKKWVELPITFPNLDYSECCLFSDED
partner: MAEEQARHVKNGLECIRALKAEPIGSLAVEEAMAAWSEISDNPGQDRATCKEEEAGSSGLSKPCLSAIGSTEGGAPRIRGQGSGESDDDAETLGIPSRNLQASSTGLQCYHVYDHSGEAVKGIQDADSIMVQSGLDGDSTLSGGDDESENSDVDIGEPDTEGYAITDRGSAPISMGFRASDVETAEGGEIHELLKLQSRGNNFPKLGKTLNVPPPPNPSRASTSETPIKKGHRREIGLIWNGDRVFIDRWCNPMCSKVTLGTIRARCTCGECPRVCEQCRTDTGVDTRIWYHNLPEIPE
B3: Non-structural protein V (measles virus (strai), P0C774 (parent)
chain: B2 partner
partner: B2 chain
B4: Interferon-induced helicase C domain-containing protein 1 (Mus musculus), Q8R5F7-1 (parent)
chain: B1 partner
B5: Antiviral innate immune response receptor RIG-I (Mus musculus), Q6Q899-1 (parent)
chain: MTAEQRQNLQAFRDYIKKILDPTYILSYMSSWLEDEEVQYIQAEKNNKGPMEAASLFLQYLLKLQSEGWFQAFLDALYHAGYCGLCEAIESWDFQKIEKLEEHRLLLRRLEPEFKATVDPNDILSELSECLINQECEEIRQIRDTKGRMAGAEKMAECLIRSDKENWPKVLQLALEKDNSKFSELWIVDKGFKRAESKADEDDGAEASSIQIFIQEEPECQNLSQNPGPPSEASSNNLHSPLKPRNYQLELALPAKKGKNTIICAPTGCGKTFVSLLICEHHLKKFPCGQKGKVVFFANQIPVYEQQATVFSRYFERLGYNIASISGATSDSVSVQHIIEDNDIIILTPQILVNNLNNGAIPSLSVFTLMIFDECHNTSKNHPYNQIMFRYLDHKLGESRDPLPQVVGLTASVGVGDAKTAEEAMQHICKLCAALDASVIATVRDNVAELEQVVYKPQKISRKVASRTSNTFKCIISQLMKETEKLAKDVSEELGKLFQIQNREFGTQKYEQWIVGVHKACSVFQMADKEEESRVCKALFLYTSHLRKYNDALIISEDAQMTDALNYLKAFFHDVREAAFDETERELTRRFEEKLEELEKVSRDPSNENPKLRDLYLVLQEEYHLKPETKTILFVKTRALVDALKKWIEENPALSFLKPGILTGRGRTNRATGMTLPAQKCVLEAFRASGDNNILIATSVADEGIDIAECNLVILYEYVGNVIKMIQTRGRGRARDSKCFLLTSSADVIEKEKANMIKEKIMNESILRLQTWDEMKFGKTVHRIQVNEKLLRDSQHKPQPVPDKENKKLLCGKCKNFACYTADIRVVETSHYTVLGDAFKERFVCKPHPKPKIYDNFEKKAKIFCAKQNCSHDWGIFVRYKTFEIPVIKIESFVVEDIVSGVQNRHSKWKDFHFERIQFDPAEMSV
B6: Antiviral innate immune response receptor RIG-I (Homo sapiens), O95786-1 (parent)
chain: MTTEQRRSLQAFQDYIRKTLDPTYILSYMAPWFREEEVQYIQAEKNNKGPMEAATLFLKFLLELQEEGWFRGFLDALDHAGYSGLYEAIESWDFKKIEKLEEYRLLLKRLQPEFKTRIIPTDIISDLSECLINQECEEILQICSTKGMMAGAEKLVECLLRSDKENWPKTLKLALEKERNKFSELWIVEKGIKDVETEDLEDKMETSDIQIFYQEDPECQNLSENSCPPSEVSDTNLYSPFKPRNYQLELALPAMKGKNTIICAPTGCGKTFVSLLICEHHLKKFPQGQKGKVVFFANQIPVYEQQKSVFSKYFERHGYRVTGISGATAENVPVEQIVENNDIIILTPQILVNNLKKGTIPSLSIFTLMIFDECHNTSKQHPYNMIMFNYLDQKLGGSSGPLPQVIGLTASVGVGDAKNTDEALDYICKLCASLDASVIATVKHNLEELEQVVYKPQKFFRKVESRISDKFKYIIAQLMRDTESLAKRICKDLENLSQIQNREFGTQKYEQWIVTVQKACMVFQMPDKDEESRICKALFLYTSHLRKYNDALIISEHARMKDALDYLKDFFSNVRAAGFDEIEQDLTQRFEEKLQELESVSRDPSNENPKLEDLCFILQEEYHLNPETITILFVKTRALVDALKNWIEGNPKLSFLKPGILTGRGKTNQNTGMTLPAQKCILDAFKASGDHNILIATSVADEGIDIAQCNLVILYEYVGNVIKMIQTRGRGRARGSKCFLLTSNAGVIEKEQINMYKEKMMNDSILRLQTWDEAVFREKILHIQTHEKFIRDSQEKPKPVPDKENKKLLCRKCKALACYTADVRVIEECHYTVLGDAFKECFVSRPHPKPKQFSSFEKRAKIFCARQNCSHDWGIHVKYKTFEIPVIKIESFVVEDIATGVQTLYSKWKDFHFEKIPFDPAEMSK
partner: B2 partner

Variants of: B1
Details: with Ifih1, Q8R5F7-1

Variant | effect of a mutation on the interaction
E174A | decreasing interaction strength

Variants of: B2
Details: with v_measc P/V

Variant | effect of a mutation on the interaction
R806L | decreasing interaction strength

Variants of: B3
Details: with ifih1_human IFIH1, Q9BYX4

Variant | effect of a mutation on the interaction
E235A | decreasing interaction strength

Variants of: B4
Details: with v_piv5 P/V

Variant | effect of a mutation on the interaction
R806L | disrupting interaction strength

Variants of: B5
Details: with v_piv5 P/V

Variant | effect of a mutation on the interaction
L715R;E717G | increasing interaction strength

Variants of: B6
Details: with v_measc P/V

Variant | effect of a mutation on the interaction
L714R | increasing interaction strength
L714R;E716G | increasing interaction strength
